The RNAGym collection of RNA variant scans (doi:10.7554/elife.90254)

B1: OR4K15 (parent)
chain: GUUAACGGUCAUAGGCCAUGGAAACUAGGAGCACCAUUUCGCUGCCAGUGAAGAAAUGAACAAAGAAAAUCUGGGCCAGGCAGGCAUCAAAAGAAAUAGUCUUGCGCUCAACCAGAAAGUCUGUAAUCAUUUUAAGGGUA

Variants of: B1
Assay: self-cleavage, relative activity (ratio to wild type); higher = more cleavage; in vitro, sequencing; the parent is a self-cleaving ribozyme

Variant | self-cleavage
GUUAACGGUCAUAGGCCAUGGAAACUAGGAGCACCAUUUCGCUGCCAGUGAAGAUAUGAACAAAGAAAAUCUGGGCCAGGCAGGCAUCAAAAGAAAUAGUCUUGCGCUCAACCAGAAAGUCUGUAAUCAUUCUAAGGGUA [A55U U132C] | 2.21
GUUAACGGUCAUAGGCCAUGGAAACUAGGAGCACCAUUUCGCUGCCAGUGAAGAACUGAACAAAGAAAAUCUGGGCCAGGCAGGCAUCAAAAGAAAUAGUCUUGCGCUCAACCAGUAAGUCUGUAAUCAUUUUAAGGGUA [A56C A116U] | 0.13
GUUAACGGUCAUAGGCCAUGGAAACUAGGAGCACCAUUUCGCUGCCAGUGAAGAUAUGAACAAAGAAAAUCUGGGCCAGGCAGGCAUCAAAAGAAAUAGUCUUGCGCUCAACCUGAAAGUCUGUAAUCAUUUUAAGGGUA [A55U A114U] | 0.03
GUUAACGGUCAUAGGCCAUGGAAACUAGGAGCACCAUUUCGCUGCCAGUGAAGAUAUGAACAAAGAAAAUCUGGGCCAGGCAGGCAUCAAAAGAAAUAGUCUUGCGCUCAACCGGAAAGUCUGUAAUCAUUUUAAGGGUA [A55U A114G] | 0.21
GUUAACGGUCAUAGGCCAUGGAAACUAGGAGCACCAUUUCGCUGCCAGUGAAGAUAUGAACAAAGAAAAUCUGGGCCAGGCAGGCAUCAAAAGAAAUAGUCUUGCGCUCAACCAGAAAGUCUGUAAUCAUCUUAAGGGUA [A55U U131C] | 2
GUUAACGGUCAUAGGCCAUGGAAACUAGGAGCACCAUUUCGCUGCCAGUGAAGAUAUGAACAAAGAAAAUCUGGGCCAGGCAGGCAUCAAAAGAAAUAGUCUUGCGCUCAACCAGAAAGUCUGUAAUCAUUUUAAGGGCA [A55U U139C] | 0.56
GUUAACGGUCAUAGGCCAUGGAAACUAGGAGCACCAUUUCGCUGCCAGUGAAGAUAUGAACAAAGAAAAUCUGGGCCAGGCAGGCAUCAAAAGAAAUAGUCUUGCGCUCAACCAGAAAGUCAGUAAUCAUUUUAAGGGUA [A55U U122A] | 0.96
GUUAACGGUCAUAGGCCAUGGAAACUAGGAGCACCAUUUCGCUGCCAGUGAAGAACUGAACAAAGAAAAUCUGGGCCAGGCAGGCAUCAAAAGAAAUAGUCUUGCGCUCAACCAGAAAGUCUGUAAUCAUUUUAAGGGUA [A56C] | 1.33
GUUAACGGUCAUAGGCCAUGGAAACUAGGAGCACCAUUUCGCUGCCAGUGAAGAUAUGAACAAAGAAAAUCUGGGCCAGGCAGGCAUCAAAAGAAAUUGUCUUGCGCUCAACCAGAAAGUCUGUAAUCAUUUUAAGGGUA [A55U A98U] | 2.38
GUUAACGGUCAUAGGCCAUGGAAACUAGGAGCACCAUUUCGCUGCCAGUGAAGAUAUGAACAAAGAAAAUCUGGGCCAGGCAGGCAUCAAAAGAAAUAGUCUUGCGCUCAACCAGAAAGUCUGUAAUCAUUUAAAGGGUA [A55U U133A] | 1.58
GUUAACGGUCAUAGGCCAUGGAAACUAGGAGCACCAUUUCGCUGCCAGUGAAGAUAUGAACAAAGAAAAUCUGGGCCAGGCAGGCAUCAAAAGAAAUAGUCUUGCGCUCAACCAGAAAGCCUGUAAUCAUUUUAAGGGUA [A55U U120C] | 0.86
GUUAACGGUCAUAGGCCAUGGAAACUAGGAGCACCAUUUCGCUGCCAGUGAAGAUAUGAACAAAGAAAAUCUGGGCCAGGCAGGCAUCAAAAGAAAUAGUCAUGCGCUCAACCAGAAAGUCUGUAAUCAUUUUAAGGGUA [A55U U102A] | 1.44
GUUAACGGUCAUAGGCCAUGGAAACUAGGAGCACCAUUUCGCUGCCAGUGAAGAUAUGAACAAAGAAAAUCUGGGCCAGGCAGGCAUCAAAAGAAAUAGUCCUGCGCUCAACCAGAAAGUCUGUAAUCAUUUUAAGGGUA [A55U U102C] | 1.73
GUUAACGGUCAUAGGCCAUGGAAACUAGGAGCACCAUUUCGCUGCCAGUGAAGAACUGAACAAAGAAAGUCUGGGCCAGGCAGGCAUCAAAAGAAAUAGUCUUGCGCUCAACCAGAAAGUCUGUAAUCAUUUUAAGGGUA [A56C A69G] | 1.24
GUUAACGGUCAUAGGCCAUGGAAACUAGGAGCACCAUUUCGCUGCCAGUGAAGAACUGGACAAAGAAAAUCUGGGCCAGGCAGGCAUCAAAAGAAAUAGUCUUGCGCUCAACCAGAAAGUCUGUAAUCAUUUUAAGGGUA [A56C A59G] | 1.51
GUUAACGGUCAUAGGCCAUGGAAACUAGGAGCACCAUUUCGCUGCCAGUGAAGAUAUGAACAAAGAAAAUCUGGGCCAGGCAGGCAUCAAAAGAAAUAGUCUUGCGCUCAACCAGAAAGUCUGUGAUCAUUUUAAGGGUA [A55U A125G] | 0.35
GUUAACGGUCAUAGGCCAUGGAAACUAGGAGCACCAUUUCGCUGCCAGUGAAGAUAUGAACAAAGAAAAUCUGGGCCAGGCAGGCACCAAAAGAAAUAGUCUUGCGCUCAACCAGAAAGUCUGUAAUCAUUUUAAGGGUA [A55U U87C] | 1.64
GUUAACGGUCAUAGGCCAUGGAAACUAGGAGCACCAUUUCGCUGCCAGUGAAGAUAGGAACAAAGAAAAUCUGGGCCAGGCAGGCAUCAAAAGAAAUAGUCUUGCGCUCAACCAGAAAGUCUGUAAUCAUUUUAAGGGUA [A55U U57G] | 1.54
GUUAACGGUCAUAGGCCAUGGAAACUAGGAGCACCAUUUCGCUGCCAGUGAAGAUAUGAACAAAGAAAAUCUGGGCCAGGCAGGCAUCAAAAGAAAUAGUCUUGCGCUCAACCAGAAAGUCUGUAGUCAUUUUAAGGGUA [A55U A126G] | 1.47
GUUAACGGUCAUAGGCCAUGGAAACUAGGAGCACCAUUUCGCUGCCAGUGAAGAUAUGAACAAAGAAAAUCUGGGCCAGGCAGGCAUCAAAAGAAAUAGUCUUGCGCUCAGCCAGAAAGUCUGUAAUCAUUUUAAGGGUA [A55U A111G] | 0.02
GUUAACGGUCAUAGGCCAUGGAAACUAGGAGCACCAUUUCGCUGCCAGUGAAGAUAUGAACAAAGAAAAUCUGGGCCAGGCAGGCAUCAAAAGAAAUAGUCUUGCGCUCAACCAGAAAGUCUGAAAUCAUUUUAAGGGUA [A55U U124A] | 1.07
